Test results taken from patent US20250144178A1, “PHARMACEUTICAL COMPOSITION FOR CANCER TREATMENT COMPRISING FUSION PROTEIN INCLUDING IL-12 AND ANTI-FAP ANTIBODY AND ANTICANCER AGENT” (KANAPH THERAPEUTICS INC., priority 2022, published 2025).

Legend:
Type in all cases: in vivo, BALB/c mice
[1] = test system: FAP-overexpressing mouse colorectal cancer CT26; experiment: Tumor growth inhibition by IL-12 mutation, FAP-overexpressing CT26, single i.v. dose; details: 10 μg i.v. once, 15 days after administration, control PBS, FIG. 28
Experimental: In order to evaluate the change in IL-12 activity according to the presence and extent of amino acid mutation, FAP-overexpressing mouse colorectal cancer CT26 was prepared by resuspending in PBS at a concentration of 5×10^5 cells/100 μl, and the tumor growth inhibitory ability was evaluated in a tumor animal model prepared by transplantation of the cells into 5-week-old female BALB/c mice.
Specifically, when the size of the tumor in the model reached 100 mm^3, the mice were randomly divided into groups. 100 μl of phosphate buffered saline (PBS) was administered once via tail vein injection of the control, and each of T1.01m, T1.02m and T1.03m was intravenously administered once at a dose of 10 μg.

[2] = test system: CT26 tumor; experiment: Tumor re-challenge in mice with complete response, CT26 tumor; details: mice with complete response after T1.01m, right flank, FIG. 26
Experimental: (§1) In order to evaluate whether tumor recurrence may be inhibited by inducing long-term immune response after fusion protein treatment, tumor re-challenge was performed in subjects in which complete response was achieved by administration of T1.01m in a tumor model transplanted with CT26 cells overexpressing FAP. BALB/c mice without a treatment history were used as control mice.
(§2) 4T1 cells were subcutaneously injected into the left flank and CT26 cells were subcutaneously injected into the right flank of control mice and mice in which complete response was achieved by administration of T1.01m, to obtain a tumor recurrence model.
(§3) CT26 cells and 4T1 cells were suspended in Hanks' Balanced salt solution (HBSS, Gibco) at a concentration of 1×10^6 cells/100 μl, respectively, and CT26 cells were transplanted into the subcutaneous region of the right flank of the mice using a 1 cc syringe (25G). Tumor formation and growth were evaluated by subcutaneous transplantation of 4T1 cells into the left flank of the same mice. Nine animals were used for the control group, and seven animals were used for the test group.

[3] = test system: CT26 colorectal cancer with mouse FAP overexpressing NIH-3T3 cells; experiment: Tumor growth inhibition, CT26 co-injected with mouse FAP overexpressing NIH-3T3
Experimental: Specifically, the mouse FAP overexpressing NIH-3T3 cells and the CT26 cells in culture were resuspended in Hanks' Balanced salt solution (HBSS, Gibco) at a concentration of 1×10^6 cells/50 μl, respectively, and the cells were mixed in a 1:1 ratio, and then 100 μl per each mouse was transplanted into the subcutaneous region of the right flank of 6-week-old BALB/c mice using a 1 cc syringe (25G) to obtain an FAP-expressing fibroblast co-injection animal model. The tumor size was measured using a digital vernier caliper by measuring the short axis and long axis of the tumor, and the tumor size was measured twice a week using the calculation formula of (short axis, mm) 2×(long axis, mm)×0.5.
Next, for drug efficacy evaluation, when the size of the tumor reached 100 mm^3, the mice were randomly divided into groups. Each experimental group consisted of 10 animals, and as a control, each 100 μl of 50 μg of T1.24m was intraperitoneally administered three times at an interval of 3 days. In the test group, each 100 μl of 10 μg and 50 μg of T1.02m and 50 μg of T1.01m, respectively, were intraperitoneally administered three times at an interval of 3 days to evaluate the tumor growth inhibitory ability.

[4] = test system: 4T1 tumor; experiment: Tumor re-challenge in mice with complete response, 4T1 tumor; details: mice with complete response after T1.01m, left flank, FIG. 27
Experimental: as §1, §2, §3

B1: T1.01m: K&H bispecific: anti-mu FAP/mu IL-12, mu IgG2a DANG (seq18, seq19, seq20) (antibody)
heavy: QVQLQQSGAELARPGASVNLSCKASGYTFTNNGINWLKQRTGQGLEWIGEIYPRSTNTLYNEKFKGKATLTADRSSNTAYMELRSLTSEDSAVYFCARTLTAPFAFWGQGTLVTVSAAKTTAPSVYPLAPVCGDTTGSSVTLGCLVKGYFPEPVTLTWNSGSLSSGVHTFPAVLQSDLYTLSSSVTVTSSTWPSQSITCNVAHPASSTKVDKKIEPRGPTIKPCPPCKCPAPNLLGGPSVFIFPPKIKDVLMISLSPIVTCVVVAVSEDDPDVQISWFVNNVEVHTAQTQTHREDYGSTLRVVSALPIQHQDWMSGKEFKCKVNNKDLPAPIERTISKPKGSVRAPQVYVLPPPEEEMTKKQVTLWCMVTDFMPEDIYVEWTNNGKTELNYKNTEPVLDSDGSYFMYSKLRVEKKNWVERNSYSCSVVHEGLHNHHTTKSFSRTPGK
light: QIVLTQSPAIMSASPGEKVTMTCSASSGVNFMHWYQQKSGTSPKRWIFDTSKLASGVPARFSGSGSGTSYSLTISSMEAEDAATYYCQQWSFNPPTFGGGTKLEIKRADAAPTVSIFPPSSEQLTSGGASVVCFLNNFYPKDINVKWKIDGSERQNGVLNSWTDQDSKDSTYSMSSTLTLTKDEYERHNSYTCEATHKTSTSPIVKSFNRNEC
chain: MWELEKDVYVVEVDWTPDAPGETVNLTCDTPEEDDITWTSDQRHGVIGSGKTLTITVKEFLDAGQYTCHKGGETLSHSHLLLHKKENGIWSTEILKNFKNKTFLKCEAPNYSGRFTCSWLVQRNMDLKFNIKSSSSSPDSRAVTCGMASLSAEKVTLDQRDYEKYSVSCQEDVTCPTAEETLPIELALEARQQNKYENYSTSFFIRDIIKPDPPKNLQMKPLKNSQVEVSWEYPDSWSTPHSYFSLKFFVRIQRKKEKMKETEEGCNQKGAFLVEKTSTEVQCKGGNVCVQAQDRYYNSSCSKWACVPCRVRSGGGGSGGGGSGGGGSRVIPVSGPARCLSQSRNLLKTTDDMVKTAREKLKHYSCTAEDIDHEDITRDQTSTLKTCLPLELHKNESCLATRETSSTTRGSCLPPQKTSLMMTLCLGSIYEDLKMYQTEFQAINAALQNHNHQQIILDKGMLVAIDELMQSLNHNGETLRQKPPVGEADPYRVKMKLCILLHAFSTRVVTINRVMGYLSSAGGGGSGGGGSEPRGPTIKPCPPCKCPAPNLLGGPSVFIFPPKIKDVLMISLSPIVTCVVVAVSEDDPDVQISWFVNNVEVHTAQTQTHREDYGSTLRVVSALPIQHQDWMSGKEFKCKVNNKDLPAPIERTISKPKGSVRAPQVYVLPPPEEEMTKKQVTLSCAVTDFMPEDIYVEWTNNGKTELNYKNTEPVLDSDGSYFMVSKLRVEKKNWVERNSYSCSVVHEGLHNHHTTKSFSRTPGK
With B1 the “tumor growth inhibitory ability compared to the control” value [1] was “excellent tumor growth inhibitory ability”, the “growth of re-challenged CT26 tumor” value [2] was “the growth of the CT26 tumor was inhibited” and the “tumor growth inhibitory ability compared to control” value ([3]; 50 μg i.p. three times at an interval of 3 days, 14th day, control 50 μg T1.24m) was 91.9%. The complete response ([3]; 24th day after administration, FIG. 24) was “subjects in complete response were observed” and the “growth of re-challenged 4T1 tumor” value [4] was “the 4T1 tumor grew”.
